Earlier results, collected in publication PMC8745658.

Target: Cytochrome b5 soluble isoform (Homo sapiens) (UniProt P00167)
Assay: flavin autofluorescence

Chain of UniProt P00167 (P00167 2-98): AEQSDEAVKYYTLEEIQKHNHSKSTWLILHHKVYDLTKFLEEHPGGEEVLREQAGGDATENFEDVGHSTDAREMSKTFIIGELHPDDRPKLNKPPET

## Cytochrome b5 reductase soluble isoform (from UniProt P00387)
  Kd: 500 nM
